Measurements from US20240294593A1 (Genentech, published 2024).
Numbering of substitutions follows the chain as printed. In names and notes the source's numbering stands.

Target: T1, human PD-1-His (human, UniProt Q15116 25-167, limits assumed)
T1 construct: Antigen of the Octet assays; not shown: His tag
Experiment: Octet

T1 sequence (Q15116 25-167 limits assumed): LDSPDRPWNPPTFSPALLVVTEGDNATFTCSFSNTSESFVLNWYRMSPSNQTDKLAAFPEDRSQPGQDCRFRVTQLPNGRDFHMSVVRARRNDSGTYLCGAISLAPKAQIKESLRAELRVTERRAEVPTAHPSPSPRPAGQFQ

B1: H1.12_L1 (antibody, human IgG1, kappa, V domains shown)
VH: EVQLVESGGGLVQPGGSLRLSCAASGFTFSGFGMHWVRQAPGKGLEWVSYISSGSSIIYYADSVKGRFTISRDNAKNSLYLQMNSLRAEDTAVYYCARGGRLVWSPDYWGQGTLVTVSS
VL: DIVMTQSPDSLAVSLGERATINCKSSQSLLNSGNQKNYLTWYQQKPGQPPKLLIYWASTRESGVPDRFTGSGSGTDFTLTISSLQAEDVAVYYCQNDYSYPFTFGSGTKLEIKR
notes: also called VH-S31G; Kabat 31G; copies: 2 + 2
Kd: 44.2 nM | koff: 0.00537 s⁻¹ | kon: 122000 M⁻¹ s⁻¹

B2: H1.13_L1 (antibody, human IgG1, kappa, V domains shown)
VH: B1 VH with G31V
VL: B1 VL
notes: also called VH-S31V; Kabat 31V; copies: 2 + 2
Kd: 50.2 nM | koff: 0.00634 s⁻¹ | kon: 126000 M⁻¹ s⁻¹

B3: H1.14_L1 (antibody, human IgG1, kappa, V domains shown)
VH: B1 VH with G31H
VL: B1 VL
notes: also called VH-S31H; Kabat 31H; copies: 2 + 2
Kd: 45.8 nM | koff: 0.00546 s⁻¹ | kon: 119000 M⁻¹ s⁻¹

B4: H1.15_L1 (antibody, human IgG1, kappa, V domains shown)
VH: B1 VH with G31D
VL: B1 VL
notes: also called VH-S31D; Kabat 31D; copies: 2 + 2
Kd: 40 nM | koff: 0.00557 s⁻¹ | kon: 139000 M⁻¹ s⁻¹

B5: H1.16_L1 (antibody, human IgG1, kappa, V domains shown)
VH: B1 VH with G31K
VL: B1 VL
notes: also called VH-S31K; Kabat 31K; copies: 2 + 2
Kd: 47.1 nM | koff: 0.00514 s⁻¹ | kon: 109000 M⁻¹ s⁻¹

B6: H1.17_L1 (antibody, human IgG1, kappa, V domains shown)
VH: B1 VH with G31Y
VL: B1 VL
notes: also called VH-S31Y; Kabat 31Y; copies: 2 + 2
Kd: 50.4 nM | koff: 0.00534 s⁻¹ | kon: 106000 M⁻¹ s⁻¹

B7: H1.18_L1 (antibody, human IgG1, kappa, V domains shown)
VH: B1 VH with G31S, F32Y
VL: B1 VL
notes: also called VH-F34Y; Kabat 32Y; copies: 2 + 2
Kd: 47.9 nM | koff: 0.00597 s⁻¹ | kon: 125000 M⁻¹ s⁻¹

B8: H1.20_L1 (antibody, human IgG1, kappa, V domains shown)
VH: B1 VH with G31S, F32W
VL: B1 VL
notes: also called VH-F34W; Kabat 32W; copies: 2 + 2
Kd: 162 nM | koff: 0.0204 s⁻¹ | kon: 126000 M⁻¹ s⁻¹

B9: H1.21_L1 (antibody, human IgG1, kappa, V domains shown)
VH: B1 VH with G31S, F32I
VL: B1 VL
notes: also called VH-F34I; Kabat 32I; copies: 2 + 2
Kd: 27.2 nM | koff: 0.00371 s⁻¹ | kon: 137000 M⁻¹ s⁻¹

B10: H1.22_L1 (antibody, human IgG1, kappa, V domains shown)
VH: B1 VH with G31S, F32H
VL: B1 VL
notes: also called VH-F34H; Kabat 32H; copies: 2 + 2
Kd: 34 nM | koff: 0.00358 s⁻¹ | kon: 105000 M⁻¹ s⁻¹

B11: H1.23_L1 (antibody, human IgG1, kappa, V domains shown)
VH: B1 VH with G31S, F32Q
VL: B1 VL
notes: also called VH-F34Q; Kabat 32Q
Kd: 73.4 nM | koff: 0.00863 s⁻¹ | kon: 118000 M⁻¹ s⁻¹

B12: H1.24_L1 (antibody, human IgG1, kappa, V domains shown)
VH: B1 VH with G31S, F32S
VL: B1 VL
notes: also called VH-F34S; Kabat 32S; copies: 2 + 2
Kd: 54.9 nM | koff: 0.00688 s⁻¹ | kon: 125000 M⁻¹ s⁻¹

B13: H1.25_L1 (antibody, human IgG1, kappa, V domains shown)
VH: B1 VH with G31S, F32K
VL: B1 VL
notes: also called VH-F34K; Kabat 32K; copies: 2 + 2
Kd: 113 nM | koff: 0.012 s⁻¹ | kon: 107000 M⁻¹ s⁻¹

B14: H1.26_L1 (antibody, human IgG1, kappa, V domains shown)
VH: B1 VH with G31S, G33A
VL: B1 VL
notes: also called VH-G35A; Kabat 33A; copies: 2 + 2
Kd: 193 nM | koff: 0.036 s⁻¹ | kon: 187000 M⁻¹ s⁻¹

B15: H1.27_L1 (antibody, human IgG1, kappa, V domains shown)
VH: B1 VH with G31S, G33S
VL: B1 VL
notes: also called VH-G35S; Kabat 33S; copies: 2 + 2
Kd: 104 nM | koff: 0.0142 s⁻¹ | kon: 137000 M⁻¹ s⁻¹
